Source: paper PMC8633003
Where a chain is given by its changes, count along the chain named.

Assays:
[1] = molecular target: Aca1 protein of Pseudomonas aeruginosa phage JBD30, full-length (1-79), wild type (Pseudomonas aeruginosa phage JBD30); assay: SEC
Aca1 = molecular target: T1, Aca1 (Pseudomonas aeruginosa phage JBD30, UniProt L7P845 1-79); assay: ITC
T1 sequence: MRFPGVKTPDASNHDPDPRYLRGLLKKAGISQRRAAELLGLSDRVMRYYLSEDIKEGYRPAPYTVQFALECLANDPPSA

Aca2 R39A = molecular target: T2, Aca2 R39A (Pectobacterium carotovorum temperate …, UniProt H9C180 1-116, R39A); assay: ITC
T2 sequence: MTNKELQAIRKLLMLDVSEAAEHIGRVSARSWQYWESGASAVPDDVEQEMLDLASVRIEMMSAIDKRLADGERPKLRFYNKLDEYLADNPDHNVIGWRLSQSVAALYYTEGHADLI

Aca2 Y34A = molecular target: T3, Aca2 Y34A (Pectobacterium carotovorum temperate …, UniProt H9C180 1-116, Y34A); assay: ITC
T3 sequence: T2 sequence with Y34A, A39R

Aca2 R30A = molecular target: T4, Aca2 R30A (Pectobacterium carotovorum temperate …, UniProt H9C180 1-116, R30A); assay: ITC
T4 sequence: T2 sequence with R30A, A39R

Aca1 Y48A = molecular target: T5, Aca1 Y48A (Pseudomonas aeruginosa phage JBD30, UniProt L7P845 1-79, Y48A); assay: ITC
T5 sequence: T1 sequence with Y48A

Aca1 S42G = molecular target: T6, Aca1 S42G (Pseudomonas aeruginosa phage JBD30, UniProt L7P845 1-79, S42G); assay: ITC
T6 sequence: T1 sequence with S42G

Aca1 V45A = molecular target: T7, Aca1 V45A (Pseudomonas aeruginosa phage JBD30, UniProt L7P845 1-79, V45A); assay: ITC
T7 sequence: T1 sequence with V45A

Aca1 R22A/Q32A = molecular target: T8, Aca1 R22A/Q32A (Pseudomonas aeruginosa phage JBD30, UniProt L7P845 1-79, R22A;Q32A); assay: ITC
T8 sequence: T1 sequence with R22A, Q32A

Aca1 R59A = molecular target: T9, Aca1 R59A (Pseudomonas aeruginosa phage JBD30, UniProt L7P845 1-79, R59A); assay: ITC
T9 sequence: T1 sequence with R59A

Aca1 R47A = molecular target: T10, Aca1 R47A (Pseudomonas aeruginosa phage JBD30, UniProt L7P845 1-79, R47A); assay: ITC
T10 sequence: T1 sequence with R47A

Aca1 R44A = molecular target: T11, Aca1 R44A (Pseudomonas aeruginosa phage JBD30, UniProt L7P845 1-79, R44A); assay: ITC
T11 sequence: T1 sequence with R44A

With “Aca1 protein of Pseudomonas aeruginosa phage JBD30, full-length (1-79), wild type (natural protein)” the stoichiometry N [1] was 2.

B1: 19-bp IR2 blunt (dsDNA)
DNA 1: TTAGGCACAATGTGCCTAA
DNA 2: TTAGGCACATTGTGCCTAA
With B1 the Kd (Aca1) was 741 nM.

B2: 26-bp ZF40-IR1 blunt (dsDNA)
DNA 1: TGCTTGTTCGCGATTGCGAACATATA
DNA 2: TATATGTTCGCAATCGCGAACAAGCA
B2: no binding (Aca2 R39A); no binding (Aca2 Y34A); no binding (Aca2 R30A).

B3: 21-bp IR2 (dsDNA)
DNA 1: ATTAGGCACAATGTGCCTAAT
DNA 2: ATTAGGCACATTGTGCCTAAT
Molecule B3 has a Kd (Aca1 Y48A) of 2860 nM, a Kd (Aca1) of 74.1 nM and a Kd (Aca1 S42G) of 59.2 nM. The Kd (Aca1 V45A) was 364 nM, the binding result (Aca1 R22A/Q32A) was “no binding” and the binding result (Aca1 R59A) was “no binding”. B3: no binding (Aca1 R47A); no binding (Aca1 R44A).

B4: 21-bp IR1 (dsDNA)
DNA 1: AAGCGGCACACTGTGCCTATT
DNA 2: AATAGGCACAGTGTGCCGCTT
Molecule B4 has a Kd (Aca1) of 53.2 nM.

B5: 23-bp IR2 (dsDNA)
DNA 1: AATTAGGCACAATGTGCCTAATC
DNA 2: GATTAGGCACATTGTGCCTAATT
With B5 the Kd (Aca1) was 32.2 nM.
